Laboratory results: paper PMC6336717 (Frontiers in Immunology, 2018)

T1: FH_(19−20) (C-terminal part of factor H, SCR 19-20), recombinant (human, UniProt P08603 1103-1231)
T1 construct: Complement factor H, human, SCR domains 19-20; also called fragment FH_(19−20); source: recombinant
T1 sequence: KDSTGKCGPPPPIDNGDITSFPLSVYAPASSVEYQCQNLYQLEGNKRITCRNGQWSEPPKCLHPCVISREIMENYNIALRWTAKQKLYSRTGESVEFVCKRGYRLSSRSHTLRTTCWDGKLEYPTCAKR

B1: factor H-related protein 1 (FHR-1), recombinant (natural protein, human, UniProt Q03591 19-330, looked up)
chain: EATFCDFPKINHGILYDEEKYKPFSQVPTGEVFYYSCEYNFVSPSKSFWTRITCTEEGWSPTPKCLRLCFFPFVENGHSESSGQTHLEGDTVQIICNTGYRLQNNENNISCVERGWSTPPKCRSTDTSCVNPPTVQNAHILSRQMSKYPSGERVRYECRSPYEMFGDEEVMCLNGNWTEPPQCKDSTGKCGPPPPIDNGDITSFPLSVYAPASSVEYQCQNLYQLEGNKRITCRNGQWSEPPKCLHPCVISREIMENYNIALRWTAKQKLYLRTGESAEFVCKRGYRLSSRSHTLRTTCWDGKLEYPTCAKR
notes: Complement factor H-related protein 1, human; secreted from CHO cells, so probably the mature protein
B2: Sbi-III-IV(K173A) (domain or fragment)
chain: not shown
notes: As used in SPR, ELISA and SAXS; also called K173A Sbi-III-IV; Sbi-III-IV mutant K173A; source: recombinant, from mutated pQE30:sbi-III-IV plasmid (QuikChange), purified

Legend:
[1] = biological target: the molecule itself; assay: SAXS; Sbi-III-IV, C3d and FHR-1 combined 1:1:1 at 45 uM, in PBS; EOM ensemble modelling with P2 symmetry
[2] = biological target: B1; assay: SPR; Biacore S200, CM5 chip, 25°C, HBST (10 mM HEPES, 150 mM NaCl, 0.005% Tween 20, pH 7.4); surfaces: 800 RU opsonized C3b, iC3b made from it, or 600 RU amine-coupled C3d; series of Sbi-III-IV WT or K173A (4,050 to 1.8 nM) flowed alone or co-injected with FH, FHR-1, FHR-2, FHR-5 or FH19-20 at 100, 12.5, 20, 25 or 20 nM; settings: both partners purified
Factor H (FH) = biological target: T2, Factor H (FH) (human, UniProt P08603 19-1231); assay: as above; settings: both partners purified
T2 construct: Complement factor H, human, plasma purified; also called plasma purified FH; source: bought: Complement Technologies (plasma purified)

[3] = biological target: T1, FH_(19−20) (C-terminal part of factor …); assay: as above; settings: both partners purified

## B1
[1]
  stoichiometry N: 2

## B2
[2]
  binding result: binds
Factor H (FH)
  binding result: binds
[3]
  binding result: binds
